From US20040038369A1, “Airway-specific trypsin-like enzymes and method of using the same” (priority 2000, published 2004) come the findings set out here.

This test in a line: Enzymatic activity of mammalian ASTs transiently expressed in 293 EBNA cells. It is filed as biochemical. As to conditions: for Cell lysate Fluorescence intensity ratio (Human:100): 293 EBNA cell lysate, three days after transfection. The procedure: A forward primer and a reverse primer were prepared on gene sequences encoding the N-terminal and C-terminal of each mammalian AST, and a cDNA encoding the full-length AST was prepared by a PCR amplification using the forward primer, the reverse primer, Pyrobest DNA polymerase (produced by Takara Shuzo Co.), and an airway cDNA as a template. On the other hand, a product obtained by cleaving pcDNA3 (produced by Invitrogen Corp.) with restriction enzymes NruI and KpnI, and the promoter domain of Elongation Factor-1a (EF-1 a) from human genome were amplified by a PCR using a forward primer: […] and a reverse primer: […]. The amplified fragment was cleaved with restriction enzymes NruI and KpnI, and then inserted into the above-described plasmid vector to construct the pEF9 expression vector having the promoter of the human EF-1α. The PCR-amplified ATS fragment was inserted into a multi-cloning site in the downstream of the human EF-1α promoter of the above-described pEF9 expression vector to prepare each animal AST expression plasmid. The base sequences were identified with an automatic sequencer.
Human fetal kidney-originated 293 EBNA cells (Invitrogen Corp.) were cultured in a 10 cm schale, and the about 5.8×10^6 cells were transfected with 28 μg of each expression plasmid prepared in (1) in 56 μL of LipofectAMINE 2000 (produced by GibcoBRL Corp.) according to an appended manual. Three days later, the cells were lysed and recovered in 5 mL of M-PER (produced by PIERCE Corp.) and then mixed with 5 mL of a buffer solution (50 mM Tris-HCl, 0.01% BSA, pH=8.6) for AST activity assay to give the cell lysate. The cell lysate was further diluted with the buffer solution for the AST activity assay ten times, and then supplied for the activity assay. 40 μL of the above-described assay sample was mixed with 20 μL of a synthetic substrate solution (a solution obtained by diluting a 10 mM Boc-Phe-Ser-Arg-MCA DMSO (dimethyl sulfoxide) solution with the buffer solution for the AST activity assay 50 times), and the increase of the fluorescence intensity per minute was assayed (fluorescence wavelength: 460 nm, excitation wavelength: 380 nm) to determine the enzymatic activity.

B1: Rabbit: rabbit AST, SEQ ID NO: 34 and 35 (protein, listed as Oryctolagus cuniculus)
chain: MYRPARGSSTSRFLNPYVICFIVVAVVVILAVIVALLIHFLAFDKKSCFFHSSFQIRNVQYSDQLNSPATQEYRLLSERIESMISQTLQGSNLRNQFIRAHVVKLRQDSNSVIADVVMKFRVSRNNNGDAMKRRVQDVLQQMLNNSGSLEINPSTTVTEITGQDTETIFTQQCGARPDLITLSEERIIGGTQAEEGDWPWQVSLQPNNAHHCGGILISNTWILTAAHCFRSYSDPRQWTATFGISTAVSRQRMRIRTILVHNNYRSATHENDIAAVQLEGAITFTRNIHSVCLPEATQNITPGSSAYVTGWGSLEYGGNTVTYLQQGRVRIISNEVCNAPASYNGAVLPTMVCAGLSQGGVDACQGDSGGPLVQEDSRRLWFVVGIVSWGYQCGLPDKPGVYTRVTAYRDWIREQTGI
For the molecule B1, the “Cell lysate Fluorescence intensity ratio (Human:100)” value is given as 30.

B2: Pig: pig AST, SEQ ID NO: 26 and 27 (protein, listed as Sus scrofa)
chain: MYRPATVRSASRSLNPYTVCFIVVAVVVILAVTIALLVHFLAFDQKAYFYHSRFQILNVEYSDELNSPATQKYRSLSGRIESMITRTFKESNLRNQFVRAHVVKLRQSGSGVIADIVMKFKFTRYNNGASMKSRIESVLRQMLNNTGNLVMNPSTELTPITDQDTVNIFTQGCGARPDLITLSEERIIGGTKAEEGDWPWQVSLQRNNLHHCGGVLISNRWILTAAHCFRSYSDPRQWTVTFGISTIFPKDRIGVRNILIHNNYNPETHENDIALVQLNREVAFTKNIHSVCLPEATQTIPPGSTAYVTGWGSQRYSGNTVPDLEQVRVNIISNDVCNSPAGYNGDVLPGMLCAGLPEGGADACQGDSGGPLQQEDSRRLWFLVGIVSWGYQCGLPDKPGVYTRVTAYRDWIAQQTGI
For the molecule B2, the “Cell lysate Fluorescence intensity ratio (Human:100)” value was 92.

B3: Monkey: monkey AST, SEQ ID NO: 28 and 29, expressed in 293 EBNA cells (protein, listed as Macaca fascicularis)
chain: MYRPARVPSTSRFLNPYVVCFIVVAGVVILAVTIALLVYFLAFDQKSYFYRSSFQLLNVEYNSQLNSPATQEYRTLSGRIESLITRTFKESNLRNQFMRAHVVKLSQDGSGVRADVVMKFRFTRNNNGASMKSRIESVLQQMLNNSGNLEINSSTEITSLTDQAAANWLINECGAGPDLITLSEQRIIGGTEAEEGSWPWQVSLRVNNAHHCGGSLISNTWILTAAHCFRSNSNPREWIATFGISTTNPRLRMRVRSILIHNNYISATHENDIALVRLENSVTFTRDIHSVCLPAATQNIPLGSTAYVTGWGAQEYAGSTVSELRQAQVRIISNDVCNAPYSYNGGILPGMLCAGVPQGGVDACQGDSGGPLVQEDSRRLWFLVGIVSWGDQCGLPDRPGVYTRVTTYRDWIRQRTGI
Consider B3, for which the “Cell lysate Fluorescence intensity ratio (Human:100)” value turned out to be 250. Further, the “Sup Fluorescence intensity ratio (Human:100)” value (293 EBNA, Sup) turned out to be 150.

B4: Dog: dog AST, SEQ ID NO: 30 and 31 (protein, listed as Canis familiaris)
chain: MYRPARVPSGSRFLNPYVVCFVVVAGVVILAVTIALLIHFLAFDQKSYFYHSSFQILNVQYSNQLNSPGTQEYRTLSGRIESLITKTFRESNLRNQFIRAHVVKLRQEGNGVIADVVMKFKFTRNNNGALMKSRIKSVLHQMLNNSGNLEISPSTEITSITDQDTVNIFTEGCGARPDLITLSEERILGGNKAEEGDWPWQVSLQKNNVHHCGGVLISSMWILSAAHCFRSQSNPRQWTAIFGASIAFPKQKRRVRTILIHNNYNPATHENDIAAIQLEGGINFTKNIHRVCLPEATQNIPPGSSAYVTGWGSQEYGGNTVSDLQQARVRIISNDVCNAPTSYNGAVRPGMLCAGLPQGGVDACRGDSGGPLVQEDSRRLWFLVGIVSWGDRCGLPDKPGVYTRVTAYRDWITEKTGV
Regarding B4, the “Cell lysate Fluorescence intensity ratio (Human:100)” value was 40.

B5: Cattle: cattle AST, SEQ ID NO: 32 and 33 (protein, listed as Bos taurus)
chain: MYRPARVTSASRSLNPYLVFFVVVAVVVILAVIIGLLVYFLAFDQKSYFYQSSIQILGKQYSDELSSPATEKYRTLSGRIESMITKTFKESDLKNEFIKAHVVKLRQSGNNVIADIIMKFKFTRRINEASMKSRIESILRQMPNNSEDLNMNPTQVISITGQDTIQLFTRECGVRSDLITLSEERIIGGSKAEKGDWPWQVSLQWSSSHRCGGALISNRWILSAAHCFRSHSDPRQWIATFGTSTISPQLRVGVRNILIHDNYKPETHENDIALVQLDREVTFNRYIHTVCLPEANQAISAGSTAYVTGWGSQSYSGSTVSDLNQGRVNIISNTVCNTPAGYNGAVLSGMLCAGLPEGGVDACQGDSGGPLVQEDSRQHWFIVGIVSWGYQCGLPDKPGVYTRVTAYRDWITQQTGI
As to B5, the “Cell lysate Fluorescence intensity ratio (Human:100)” value is 16.
